Data taken from patent publication US11421006B2, “T cell epitopes from Cockroach and methods of making and using same” (LA JOLLA INSTITUTE FOR ALLERGY AND IMMUNOLOGY, priority 2012, dated 2022).
Entries after “also recorded” stand apart in the source; their conditions may differ.

B1: Bla g 2: German Cockroach allergen Bla g 2 (protein, listed as Blattella germanica)
chain: MIGLKLVTVLFAVATITHAAELQRVPLYKLVHVFINTQYAGITKIGNQNFLTVFDSTSCNVVVASQECVGGACVCPNLQKYEKLKPKYISDGNVQVKFFDTGSAVGRGIEDSLTISNLTTSQQDIVLADELSQEVCILSADVVVGIAAPGCPNALKGKTVLENFVEENLIAPVFSIHHARFQDGEHFGEIIFGGSDWKYVDGEFTYVPLVGDDSWKFRLDGVKIGDTTVAPAGTQAIIDTSKAIIVGPKAYVNPINEAIGCVVEKTTTRRICKLDCSKIPSLPDVTFVINGRNFNISSQYYIQQNGNLCYSGFQPCGHSDHFFIGDFFVDHYYSEFNWENKTMGFGRSVESV
B2: Bla g 5: German Cockroach allergen Bla g 5 (protein, listed as Blattella germanica)
chain: MAPSYKLTYCPVKALGEPIRFLLSYGEKDFEDYRFQEGDWPNLKPSMPFGKTPVLEIDGKQTHQSVAISRYLGKQFGLSGKDDWENLEIDMIVDTISDFRAAIANYHYDADENSKQKKWDPLKKETIPYYTKKFDEVVKANGGYLAAGKLTWADFYFVAILDYLNHMAKEDLVANQPNLKALREKVLGLPAIKAWVAKRPPTDL
B3: Bla g 7: German Cockroach allergen Bla g 7 (protein, listed as Blattella germanica)
chain: MDAIKKKMQAMKLEKDNAMDRALLCEQQARDANIRAEKAEEEARSLQKKIQQIENDLDQTMEQLMQVNAKLDEKDKALQNAESEVAALNRRIQLLEEDLERSEERLATATAKLAEASQAADESERARKILESKGLADEERMDALENQLKEARFMAEEADKKYDEVARKLAMVEADLERAEERAETGESKIVELEEELRVVGNNLKSLEVSEEKANLREEEYKQQIKTLNTRLKEAEARAEFAERSVQKLQKEVDRLEDELVHEKEKYKYICDDLDMTFTELIGN
B4: Bla g 4: German Cockroach allergen Bla g 4 (protein, listed as Blattella germanica)
chain: AVLALCATDTLANEDCFRHESLVPNLDYERFRGSWIIAAGTSEALTQYKCWIDRFSYDDALVSKYTDSQGKNRTTIRGRTKFEGNKFTIDYNDKGKAFSAPYSVLATDYENYAIVEGCPAAANGHVIYVQIRFSVRRFHPKLGDKEMIQHYTLDQVNQHKKAIEEDLKHFNLKYEDLHSTCH
B5: Bla g 6: German Cockroach allergen Bla g 6 (protein, listed as Blattella germanica)
chain: MADEQLQLPPEQISVLRKAFDAFDREKSGSISTNMVEEILRLMGQPFNRRTLEELIDEVDADKSGRLEFDEFVTLAAKFIIEEDSEAMEKELREAFRLYDKEGNGYIPTSCLREILRELDEQLTSDELDMMIEEIDADGSGTVDFDEFMEMMTG
B6: Bla g 1: German Cockroach (Blattella germanica) allergen Bla g 1 (protein, listed as Blattella germanica)
chain: NAIEFLNNIHDLLGIPHIPVTARKHHRRGVGITGLIDDIIAILPVDDLYALFQEKLETSPEFKALYDAIRSPEFQSIVGTLEAMPEYQNLIQKLKDKGVDVDHIIELIHQIFNIVRDTRGLPEDLQDFLALIPTDQVLAIAADYLANDAEVKAAVEYLKSDEFETIVVTVDSLPEFKNFLNFLQTNGLNAIEFLNNIHDLLGIPHIPVTGRKHLRRGVGITGLIDDIIAILPVDDLYALFQEKLETSPEFKALYDAIRSPEFQSIVETLKAMPEYQSLIQKLKDKGVDVDHIIELIHQIFNIVRDTRGLPEDLQDFLALIPIDQILAIAADYLANDAEVQAAVEYLKSDEFETIVVTVDSLPEFKNFLNFLQTNGLNAIEFINNIHDLLGIPHIPATGRKHVRRGVGINGLIDDVIAILPVDELYALFQEKLESSPEFKALYDAIRSPEFQSIVQTLKAMPEYQDLIQRLKDKGVDVDHFIELIKKLFGLSH

Tested on: Bla g-specific T cells (PBMC)
Experiment: ELISPOT assays: IL-5, IFN-γ and IL-10 production by in vitro expanded PBMC of Cockroach-allergic donors
Assay type: cell-based, human
Conditions: not given
Description: In vitro expansion of Bla g-specific T cells: PBMC were cultured in RPMI 1640 (V Scientific, Tarzana, Calif.) supplemented with 5% human serum (Cellgro, Herndon, Va.) at a density of 2×10^6 cells/ml in 24-well plates (BD Biosciences, San Jose, Calif.) and stimulated with 25 μg/ml German Cockroach (Blatella germanica; Bla g) extract (Greer, Lenoir, N.C.), or individual peptides. […] On day 14, cells were harvested and screened for reactivity against Bla g-specific peptide pools or individual peptides. ELISPOT assays: The production of IL-5, IFN-γ, and IL-10 was analyzed in ELISPOT assays. […] Cells were then incubated at a density of 1×10^5/well either with peptide pools or individual peptides (10 μg/ml), German Cockroach extract (25 μg/ml), PHA (10 μg/ml), or medium (containing 1% DMSO corresponding to the percentage of DMSO in the pools/peptides) as a control. […] Louis, Mo.). Spots were counted by computer-assisted image analysis (Zeiss, KS-ELISPOT reader, Munich, Germany). Each assay was performed in triplicate. The level of statistical significance was determined with a Student's t-test using the mean of triplicate values of the response against relevant pools or individual peptides versus the response against the DMSO control.

Row | Molecule | T cell response pattern (IL-5 / IFN-γ), in words
1 | B1 | Little or no response; also recorded: responses were detected only for IFN-γ, and not for IL-5
2 | B2 | both IL-5 and IFN-γ responses were detected
3 | B3 | Little or no response
4 | B4 | Little or no response
5 | B5 | clear preponderance of IL-5

Same assay, conditions: 34 donors

Row | Molecule | Donors responding (%), T cell | Donors responding, T cell (number)
6 | B1 | 9% | 3
7 | B2 | 32% | 11
8 | B6 | 12% | 4
9 | B4 | 0 (0) % | 0 (0)
10 | B5 | 17% | 5

Same assay, conditions: all peptides of the protein

Row | Molecule | IFN-γ SFC | IL-5 SFC
11 | B1 | 1553 SFC | 0 SFC
12 | B2 | 6875 SFC | 9637 SFC
13 | B6 | 890 SFC | 1083 SFC
14 | B3 | 0 SFC | 0 SFC
15 | B4 | 0 SFC | 0 SFC
16 | B5 | 310 SFC | 4045 SFC

Same assay, conditions: all peptides of the protein, IL-5 plus IFN-γ

Row | Molecule | Total SFC
17 | B1 | 1553 SFC
18 | B2 | 16512 SFC
19 | B6 | 1973 SFC
20 | B3 | 0 SFC
21 | B4 | 0 SFC
22 | B5 | 4355 SFC

Same assay, conditions: discussion, PBMC responses from 30 allergic donors

Row | Molecule | share of the response accounted for by the allergen
23 | B2 | 65%
24 | B5 | 20%

Same assay, conditions: of the 11 donors responding

Row | Molecule | donors with a strong Th1 bias (ratio >5-fold) | donors with a strong Th2 bias | donors with balanced responses
25 | B2 | 3 | 3 | 5

Same assay, conditions: per protein

Row | Molecule | Ratio IL-5/IFNγ
26 | B1 | <0.01
27 | B2 | 1.40
28 | B6 | 1.22
29 | B5 | 13.0

Same assay, conditions: share of total Bla g response per protein

Row | Molecule | % Total Response
30 | B1 | 6.4%
31 | B2 | 67.7%
32 | B6 | 8.1%
33 | B3 | 0.0%
34 | B4 | 0.0%
35 | B5 | 17.9%

Tested on: specific IgE antibody in donor sera
Experiment: Serological determinations: specific IgE antibody binding by (streptavidin-)ImmunoCAP
Design: species or system human
Conditions: 34 donors
Description: Serological determinations: Sera were analyzed for specific IgE antibody binding to rBla g 1, rBla g 2, rBla g 4, rBla g 5 and rPer a 7 using allergen-coated streptavidin-ImmunoCAPs. Recombinant allergens were expressed in Pichia pastoris (rBla g 1, rBla g 2, rBla g 4, rPer a 7) or Escherichia coli (rBla g 5) and purified by affinity chromatography. Purified allergens were biotinylated and bound to streptavidin-coated ImmunoCAPs (Phadia US Inc., Portage, Mich.) at an optimized amount of 1 μg per ImmunoCAP. Specific IgE antibody binding to extracts from Blattella germanica (i6), Dermatophagoides pteronyssinus (d1) and D. farinae (d2), and total IgE antibody were also measured by ImmunoCAP analysis.

Row | Molecule | Donors responding (%), IgE | Donors responding, IgE (number)
36 | B1 | 24% | 8
37 | B2 | 44% | 15
38 | B6 | 12% | 4
39 | B4 | 12% | 4

Tested on: not listed separately
Experiment: Correlation between IgE and T cell responses per donor
Design: species or system human
Conditions: not given
Excerpt: The correlation between T cell responses and IgE responses was further investigated by examining for each donor which allergens were recognized by IgE and T cell responses (Table V and Table IX).

Row | Molecule | Donors with Responses to: IgE Only | Donors with Responses to: Neither | Donors with Responses to: T Cell Only
40 | B1 | 7 | 24 | 2
41 | B2 | 8 | 15 | 4
42 | B6 | 3 | 27 | 3
43 | B3 | 4 | 30 | 0
44 | B4 | 4 | 30 | 0

Same assay, conditions: IgE and T cell

Row | Molecule | Donors with Responses to: Both
45 | B1 | 1
46 | B2 | 7
47 | B6 | 1
48 | B3 | 0
49 | B4 | 0
